The text below walks through data of patent US6083711, “Proteases compositions capable of binding to said site, and methods of use thereof” (SmithKline Beecham Corporation, dated 2000).

The chains are these.
B1: HSV-1 protease (enzyme)
chain: MAADAPGDRMEEPLPDRAVPIYVAGFLALYDSGDSGELALDPDTVRAALPPDNPLPINVNHRAGCEVGRVLAVVDDPRGPFFVGLIACVQLERVLETAASAAIFERRGPPLSREERLLYLITNYLPSVSLATKRLGGEAHPDRTLFAHVALCAIGRRLGTIVTYDTGLDAAIAPFRHLSPASREGARRLAAEAELALSGRTWAPGVEALTHTLLSTAVNNMMLRDRWSLVAERRRQAGIAGHTYLQA
B2: protease from delta9 LQAS-12aa ext H6(C) VZV (enzyme)
chain: MEALYVAGLYALYSKDEGELNITPEIVRSALPPTSKIPINIDHRKDCVVGEVIAIIEDIRGPFFLGIVRCPQLHAVLFEAAHSNFFGNRDSVLSPLERALYLVTNYLPSVSLSSKRLSPNEIPDGNFFTHVALCVVGRRVGTVVNYDCTPESSIEPFRVLSMESKARLLSLVKDYAGLNKVWKVSEDKLAKVLLSTAVNNMLLRDRWDVVAKRRREAGIMGHVYLQA
B3: CMV A143V protease (enzyme)
chain: MTMDEQQSQAVAPVYVGGFLARYDQSPDEAELLLPRDVVEHWLHAQGQGQPSLSVALPLNINHDDTAVVGHVAAMQSVRDGLFCLGCVTSPRFLEIVRRASEKSELVSRGPVSPLQPDKVVEFLSGSYAGLSLSSRRCDDVEVATSLSGSETTPFKHVALCSVGRRRGTLAVYGRDPEWVTQRFPDLTAADRDGLRAQWQRCGSTAVDASGDPFRSDSYGLLGNSVDALYIRERLPKLRYDKQLVGVTERESYVKA
B4: unliganded HSV-2 protease (enzyme)
chain: MASAEMRERLEAPLPDRAVPIYVAGFLALYDSGDPGELALDPDTVRAALPPENPLPINVNHRARCEVGRVLAVVNDPRGPFFVGLIACVQLERVLETAASAAIFERRGPALSREERLLYLITNYLPSVSLSTKRRGDEVPPDRTLFAHVALCAIGRRLGTIVTYDTSLDAAIAPFRHLDPATREGVRREAAEAELALAGRTWAPGVEALTHTLLSTAVNNMMLRDRWSLVAERRRQAGIAGHTYLQA

This data set deals with the molecule itself. As to the kind of experiment: crystal structure, homodimer.
Regarding B1, the binding result is listed as “binds”.

B2: the binding result is “binds”. Next, B3: “binds”; B4: “binds”.
